According to US20250182853A1 (TOHOKU UNIVERSITY, published 2025):

Each binder was assayed against T1, Galectin-3 (UniProt P17931 1-250, limits assumed) (assay: ELISA, eight 2-fold dilutions starting from 1.5 uM).
T1 construct: Immobilized on magnetic particles for panning and on ELISA wells via NeutrAvidin; also called Gal-3; target Galectin-3
T1 sequence (P17931 whole entry): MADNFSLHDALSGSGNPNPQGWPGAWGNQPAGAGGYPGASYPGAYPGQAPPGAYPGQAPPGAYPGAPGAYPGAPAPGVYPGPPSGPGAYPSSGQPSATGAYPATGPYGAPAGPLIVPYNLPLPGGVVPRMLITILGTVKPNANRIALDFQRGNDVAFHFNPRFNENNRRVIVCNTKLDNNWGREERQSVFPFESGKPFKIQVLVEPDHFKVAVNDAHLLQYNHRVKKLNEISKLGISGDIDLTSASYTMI

Row | Binder | EC50 [nM]
1 | 1E2 mutant (2u2f mutant from Cluster 1) (designed binder, Purified monomer from a pET22b vector in E. coli (IMAC, SEC); The tag is not described) AHKLFIGGLPVDYNDDQVKELLTSFGPLKAFNLVKDSATGLSKGYAFAEYVDINVTDQAIAGLNGNVCHLHTLLVQRASVGAKNADYKDDDDKLEHHHHHH | 92.5
2 | 3B5 mutant (2u2f mutant from Cluster 3) (designed binder, Purified monomer from a pET22b vector in E. coli (IMAC, SEC); The tag is not described) AHKLFIGGLPADGDDDQVKELLTSFGPLKAFNLVKDSATGLSKGYAFAEYVDINVTDQAIAGLNGFATSRFSLLVQRASVGAKNADYKDDDDKLEHHHHHH | 277
3 | 1H2 mutant (2u2f mutant from Cluster 1) (designed binder, Purified monomer from a pET22b vector in E. coli (IMAC, SEC); The tag is not described) AHKLFIGGLPVDYNDDQVKELLTSFGPLKAFNLVKDSATGLSKGYAFAEYVDINVTDQAIAGLNGSGSRIRALLVQRASVGAKNADYKDDDDKLEHHHHHH | 79.9
4 | 4H5 mutant (2u2f mutant from Cluster 4) (designed binder, Purified monomer from a pET22b vector in E. coli (IMAC, SEC); The tag is not described) AHKLFIGGLPDYYGDDQVKELLTSFGPLKAFNLVKDSATGLSKGYAFAEYVDINVTDQAIAGLNGRFYGTATLLVQRASVGAKNADYKDDDDKLEHHHHHH | 201
